2 substances from publication PMC12297522 can be followed below.

The target in assay [1] is trastuzumab-PFc29 (human).
In assay [2] the target is trastuzumab (wild-type Fc) (human).

Substance “human FcRn-GST (from UniProt P55899 24-365) (receptor)” showed a serum half-life in hiFcRn mice, 5 mg/kg i.v. in assay [1] of 18.9 days. The serum half-life (t1/2) in hiFcRn mice, 5 mg/kg i.v. in assay [2] came to 8.3 days.
In turn, “mouse FcRn-GST (from UniProt Q61559 22-365) (receptor)” had a serum half-life in C57BL/6 mice, 5 mg/kg i.v. in assay [1] of 10.5 days. The serum half-life (t1/2) in C57BL/6 mice, 5 mg/kg i.v. in assay [2] amounted to 13.1 days.
